Consider five substances from patent US20230001013A1, “STABLE MONOMERIC INSULIN FORMULATIONS ENABLED BY SUPRAMOLECULAR PEGYLATION OF INSULIN ANALOGUES” (THE BOARD OF TRUSTEES OF THE LELAND STANFORD JUNIOR …, priority 2019, published 2023).

Series [1] in a line: Insulin association state by SEC-MALS. The class given is physicochemical. Conditions: for monomer / number average molecular weight (MW): zinc-free. The source says:
Excipient choice is important, because as in the case of Apidra (glulisine), the absence of zinc is not sufficient to result in an ultra-fast acting insulin formulation. To engineer an insulin formulation that promotes the monomer state, the effects of excipients on insulin association state under zinc-free conditions must be understood. Characterization by size exclusion chromatography with multiple angle light scattering (SEC-MALS) allows us to determine insulin molecular weight in formulation and estimate the fraction of hexamers, dimers and monomers under formulation conditions. […] To select for a mostly monomeric insulin formulation, we evaluated the effect of tonicity agents and preservatives on insulin association state.
Number-averaged molecular weight (MW) and dispersity (Ð=Mw/Mn) of formulations were obtained using size exclusion chromatography (SEC) carried out using a Dionex Ultimate 3000 instrument (including pump, autosampler, and column compartment) outfitted with a Dawn Heleos II Multi Angle Ligh Scattering detector, and a Optilab rEX refractive index detector. The column was a Superose 6 Increase 10/300 GL from GE healthcare. Data was analyzed using Astra 6.0 software.
Controls consisted of either (v) commercial Humalog formulation comprising glycerol (1.6%), meta-cresol (0.315%), dibasic sodium phosphate (0.188%), and zinc (0.00197%), or (vi) commercial Novolog formulation comprising glycerol (1.6%), meta-cresol (0.172%), phenol (0.15%), sodium chloride (0.058%), dibasic sodium phosphate (0.125%), and zinc (0.00196%). Insulin lispro and aspart were injected at a concentration of a minimum […] protein and a volume of 100 μL. A do/dc of 0.186 mL/g was used for all samples.
The molar fraction of monomeric, dimeric and hexameric insulin was determined by fitting experimentally derived number-averaged (Mn) and weight-averaged (Mw) molecular weights determined by SEC-MALS to Equation 1 and Equation 2, where m, d and h, respectively, represent the molar fractions of monomeric, dimeric and hexameric insulin while I represents the molecular weight of monomeric insulin (5831 g/mol). The solver was constrained so that m+d+h=1 while m, d and h remain between 0 and 1.
(In general: Size exclusion chromatography separates by hydrodynamic size, large species first.)

The conditions of series [2]: reported previously; cited from earlier work.
Series [3] concerns the target insulin aspart (Homo sapiens, UniProt P01308, P52D). Nature of the series: Acridine orange dye displacement competitive binding assay. The conditions noted are these: unmodified CB[7], AO displacement, one-site competitive binding model; read-out: binding affinity. As for the experimental part: Unmodified CB[7] was purchased from Strem Chemicals and Acridine Orange (AO) was purchased from Sigma-Aldrich. Binding of CB[7] to aspart was assessed using the AO dye displacement assay, as previously described. Briefly, 6 μM of CB[7] and 8 μM AO were combined with 100 μL of aspart samples. Aspart samples were diluted to concentrations of 0, 0.01, 0.1, 0.3, 0.5, 1, 1.5, 2, 3, 4 μm in H2O. Samples were incubated overnight in light-free conditions, and fluorescent spectra were collected on an BioTek SynergyH1 microplate reader, exciting at 485 nm and collecting the resulting fluorescent spectra from 495 to 650 nm. The decay in the peak of AO fluorescent signal was fit to a one-site competitive binding model (GraphPad Prism, version 6.0), using the CB[7]·AO equilibrium constant reported previously (Keq=2×10^5 M^−1), to determine binding constants of unmodified CB[7] to insulin.

Series [4] addresses N-terminal phenylalanine on insulin (Homo sapiens, UniProt P01308). Nature of the series: Host-guest binding of CB[7]-PEG to insulin. On the procedure: Referring to FIGS. 1A and 1B, existing insulin formulations contain a mixture of hexamers, dimers and monomers, which, upon subcutaneous injection, dissociate and are absorbed at different rates, shown diagrammatically in FIG. 1A. Non-covalent PEGylation is enabled by the strong specific binding between CB[7]-PEG and the N-terminal phenylalanine on insulin (KD=0.5 μM). Under high concentrations in formulation insulin will be greater than 98% bound, but after dilution upon subcutaneous injection less than 1% of CB[7]-PEG will remain associated with insulin. This differential absorption results in the rapid onset but long duration of action of these formulations, as indicated in the activity curve in FIG. 1B. […] The formulations described herein are directed to this objective.

Setting [5] is: phosphate buffer (pH=7.4), glycerol (2.6%).
Setting [6] is: phosphate buffer (pH=7.4), sodium chloride (0.9%).
Setting [7] is: phosphate buffer, glycerol (2.6%) and meta-cresol (0.315%).
The mark [8] stands for this setting: phosphate buffer, glycerol (2.6%) and phenoxyethanol (0.85%).

“Zinc free insulin: zinc free insulin in pure water”: the association state result in series [1] (in pure water) was “completely monomeric”.

Consider cucurbit[7]uril [CB[7]], for which the Keq in series [2] is 200000 M⁻¹. For the same substance, in series [3], the Kd is 540 nM.

Regarding “cucurbit[7]uril-poly(ethylene glycol) [CB[7]-PEG]”, the Kd in series [4] is 500 nM. For the same substance, the “CB[7]-PEG remaining associated with insulin” value in series [4] (after dilution following subcutaneous administration) was “less than 1%”. The “fraction bound (CB[7]-PEG/insulin complex)” value in series [4] (typical (high) formulation concentrations) is “greater than 98%”.

As for insulin aspart, the monomer in series [1] (setting [5]) worked out at 91.4%; in series [1] (setting [6]), 4.8%; in series [1] (setting [7]) it was 71.0%; in series [1] (setting [8]), 85.2%. Also, the “number average molecular weight (MW)” value in series [1] (setting [5]) was found to be 7.4 kDa; in series [1] (setting [6]), 13 kDa; in series [1] (setting [7]) it was 9.4 kDa; in series [1] (setting [8]) it was 7.4 kDa.

Take insulin lispro: the monomer in series [1] (setting [5]) stood at 89.2%; in series [1] (setting [6]) it was 55.0%; in series [1] (setting [7]), 56.7%; in series [1] (setting [8]) it was 71.5%. Besides, the “number average molecular weight (MW)” value was 7.6 kDa in series [1] (setting [5]), 8.7 kDa in series [1] (setting [6]), 9.0 kDa in series [1] (setting [7]) and 8.2 kDa in series [1] (setting [8]).
